Assay results as given in PMC9929448.

Experiments:
[1] = target: Noggin (residues 28-232) (human (from the UniProt entry Q13253)) (UniProt Q13253); experiment: BLI; biotinylated Noggin (4 ug/mL) immobilised on streptavidin-coated biosensors, BMP-2 1 to 22.8 nM in solution; 30 °C; 50 mM sodium citrate pH 6.8, 150 mM NaCl, 1 mM magnesium acetate, 0.02% CHAPS; 1:1 interaction model; three repetitions
[2] = target: BMP-2 N102D mutant, mature form (human); experiment: SDS-PAGE under reducing and nonreducing conditions; purified, refolded protein on 4 to 20% SDS-PAGE, Coomassie blue; covalent (disulphide) dimer
Noggin (Homo sapiens) = Noggin (Homo sapiens) (UniProt Q13253); experiment: SPR; settings: cited from earlier work
Noggin (Homo sapiens), sequence (Q13253 28-232): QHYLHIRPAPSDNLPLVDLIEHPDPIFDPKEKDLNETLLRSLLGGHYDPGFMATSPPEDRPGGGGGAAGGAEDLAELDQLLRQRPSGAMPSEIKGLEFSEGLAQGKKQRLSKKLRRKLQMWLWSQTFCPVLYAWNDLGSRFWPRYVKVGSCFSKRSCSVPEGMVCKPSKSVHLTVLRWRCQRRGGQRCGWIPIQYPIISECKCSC

[3] = target: T1, Bone morphogenetic protein 2 (BMP-2), wild type, mature form (human); experiment: SDS-PAGE under reducing and nonreducing conditions; purified, refolded protein on 4 to 20% SDS-PAGE, Coomassie blue; covalent (disulphide) dimer
T1 sequence (P12643 whole entry, looked up): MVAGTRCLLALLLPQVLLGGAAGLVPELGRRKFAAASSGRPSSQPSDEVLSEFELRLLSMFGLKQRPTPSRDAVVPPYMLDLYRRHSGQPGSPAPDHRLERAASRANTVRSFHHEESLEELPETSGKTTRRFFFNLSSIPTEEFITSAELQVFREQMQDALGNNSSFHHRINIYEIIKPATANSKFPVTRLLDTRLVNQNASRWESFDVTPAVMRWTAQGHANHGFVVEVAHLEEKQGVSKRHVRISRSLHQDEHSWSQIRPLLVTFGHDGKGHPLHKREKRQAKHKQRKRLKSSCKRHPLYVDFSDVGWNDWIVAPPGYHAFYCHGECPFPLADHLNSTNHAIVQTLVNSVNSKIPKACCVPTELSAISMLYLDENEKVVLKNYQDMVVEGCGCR

Noggin (residues 28-232) (human, sequence (Q13253 other isoform, or with tags, fused parts or gaps): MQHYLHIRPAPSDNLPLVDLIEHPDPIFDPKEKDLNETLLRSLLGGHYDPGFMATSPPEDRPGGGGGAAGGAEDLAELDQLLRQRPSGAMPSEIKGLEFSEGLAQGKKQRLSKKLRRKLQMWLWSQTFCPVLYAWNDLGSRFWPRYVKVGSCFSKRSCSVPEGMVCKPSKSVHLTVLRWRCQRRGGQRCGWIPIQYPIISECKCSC

Substance	Kd [1]	koff [1]	kon [1]	stoichiometry N [2]	Kd (Noggin (Homo sapiens))	stoichiometry N [1]	stoichiometry N [3]
BMP-2 N102D mutant, mature form (ligand)	0.3 nM	0.0007 s⁻¹	2.3e+06 M⁻¹ s⁻¹	2			
BMP-2 (from UniProt P12643)					0.6 nM		
Bone morphogenetic protein 2 (BMP-2), wild type, mature form (ligand)	0.36 nM	0.00042 s⁻¹	1.2e+06 M⁻¹ s⁻¹			1	2
